Data: patent US20200261490A1 (AARHUS UNIVERSITET, published 2020)

Columns and labels:
[1] = target: T1, recombinant human stanniocalcin 1, C-terminally myc-his-tagged (human, UniProt P52823 34-247); assay: SPR (Biacore T200); PAPP-A captured by immobilised mAb 234-5, purified STC1 as analyte, global 1:1 Langmuir fit
Description: (§1) Surface plasmon resonance experiments were carried out on a Biacore T200 (GE Healthcare). Using amine coupling, purified monoclonal antibody 234-5 was immobilized in flow cells (FC) 3 and 4 of a Series S CM5 Sensor Chip (GE Healthcare). To reach a coupling density of 5,000 response units (RU), the antibody was diluted to 30 μg ml⁻¹ in 10 mM sodium acetate, pH 4.75. Remaining active groups were blocked by a 7 min injection of 1 M ethanolamine, pH 8.0. […] The association phase was 180 s, followed by a 1,000 s dissociation phase. At the end of each binding cycle, both surfaces were regenerated by a 40 s injection of 0.1 M glycine, pH 2.5, and 0.5 M guanidine hydrochloride. […] Binding analysis was performed at 25° C., and data were collected at a rate of 10 Hz. Recorded signals were subtracted the background signal, as determined by the response obtained from the reference cell. Global fitting of a 1:1 Langmuir model was performed, using the Biacore T200 Evaluation Software, version 1.0.

[2] = target: T1, recombinant human stanniocalcin 1, …; assay: SPR (Biacore T200), PAPP-A captured by immobilised mAb 234-5, STC1 injected at 0.20-6.26 nM, global 1:1 Langmuir fit
Description: as §1

B1: recombinant human PAPP-A (pregnancy-associated plasma protein-A, pappalysin-1) (enzyme)
chain: EARGATEEPSPPSRALYFSGRGEQLRLRADLELPRDAFTLQVWLRAEGGQRSPAVITGLYDKCSYISRDRGWVVGIHTISDQDNKDPRYFFSLKTDRARQVTTINAHRSYLPGQWVYLAATYDGQFMKLYVNGAQVATSGEQVGGIFSPLTQKCKVLMLGGSALNHNYRGYIEHFSLWKVARTQREILSDMETHGAHTALPQLLLQENWDNVKHAWSPMKDGSSPKVEFSNAHGFLLDTSLEPPLCGQTLCDNTEVIASYNQLSSFRQPKVVRYRVVNLYEDDHKNPTVTREQVDFQHHQLAEAFKQYNISWELDVLEVSNSSLRRRLILANCDISKIGDENCDPECNHTLTGHDGGDCRHLRHPAFVKKQHNGVCDMDCNYERFNFDGGECCDPEITNVTQTCFDPDSPHRAYLDVNELKNILKLDGSTHLNIFFAKSSEEELAGVATWPWDKEALMHLGGIVLNPSFYGMPGHTHTMIHEIGHSLGLYHVFRGISEIQSCSDPCMETEPSFETGDLCNDTNPAPKHKSCGDPGPGNDTCGFHSFFNTPYNNFMSYADDDCTDSFTPNQVARMHCYLDLVYQGWQPSRKPAPVALAPQVLGHTTDSVTLEWFPPIDGHFFERELGSACHLCLEGRILVQYASNASSPMPCSPSGHWSPREAEGHPDVEQPCKSSVRTWSPNSAVNPHTVPPACPEPQGCYLELEFLYPLVPESLTIWVTFVSTDWDSSGAVNDIKLLAVSGKNISLGPQNVFCDVPLTIRLWDVGEEVYGIQIYTLDEHLEIDAAMLTSTADTPLCLQCKPLKYKVVRDPPLQMDVASILHLNRKFVDMDLNLGSVYQYWVITISGTEESEPSPAVTYIHGSGYCGDGIIQKDQGEQCDDMNKINGDGCSLFCRQEVSFNCIDEPSRCYFHDGDGVCEEFEQKTSIKDCGVYTPQGFLDQWASNASVSHQDQQCPGWVIIGQPAASQVCRTKVIDLSEGISQHAWYPCTISYPYSQLAQTTFWLRAYFSQPMVAAAVIVHLVTDGTYYGDQKQETISVQLLDTKDQSHDLGLHVLSCRNNPLIIPVVHDLSQPFYHSQAVRVSFSSPLVAISGVALRSFDNFDPVTLSSCQRGETYSPAEQSCVHFACEKTDCPELAVENASLNCSSSDRYHGAQCTVSCRTGYVLQIRRDDELIKSQTGPSVTVTCTEGKWNKQVACEPVDCSIPDHHQVYAASFSCPEGTTFGSQCSFQCRHPAQLKGNNSLLTCMEDGLWSFPEALCELMCLAPPPVPNADLQTARCRENKHKVGSFCKYKCKPGYHVPGSSRKSKKRAFKTQCTQDGSWQEGACVPVTCDPPPPKFHGLYQCTNGFQFNSECRIKCEDSDASQGLGSNVIHCRKDGTWNGSFHVCQEMQGQCSVPNELNSNLKLQCPDGYAIGSECATSCLDHNSESIILPMNVTVRDIPHWLNPTRVERVVCTAGLKWYPHPALIHCVKGCEPFMGDNYCDAINNRAFCNYDGGDCCTSTVKTKKVTPFPMSCDLQGDCACRDPQAQEHSRKDLRGYSHG
notes: Secreted from transfected HEK293T cells and used in culture medium; also called wt PAPP-A; huPAPP-A
Work on B1 yielded a Kd [1] of 75 pM, a Kd [2] of 74.9 pM and a koff [2] of 0.000208 s⁻¹. The kon [2] was 2.78e+06 M⁻¹ s⁻¹.
